Biological target: Lactococcus lactis pyruvate carboxylase (Lactococcus lactis)
Test: cryo-EM structure; LlPC under reaction conditions: 0.1 uM LlPC, 2 mM acetyl-CoA, 20 mM pyruvate, 2 mM ATP, 10 mM KHCO3, 5 mM MgCl2, 2 mM DTT, 200 mM NaCl, 20 mM Tris pH 7.6; symmetry expansion, focused classification of BC and CT domains

stoichiometry N: 4
Substance: Lactococcus lactis pyruvate carboxylase (enzyme)

Reference: publication PMC9581989
